Laboratory results as given in US20240139265A1.

B1: P17 9-mer neoantigen peptide … (MSMB-NOCA4 fusion) (peptide)
peptide: RAVRRMNTF
modifications: here or on the partner: biotinylated heavy chain
B2: P76 9-mer neoantigen peptide … (AR-V3 splice variant) (peptide)
peptide: YCMAAPMGL
modifications: here or on the partner: biotinylated heavy chain
B3: P82 9-mer neoantigen peptide … (AR-V7 splice variant) (peptide)
peptide: RVGNCKHLK
modifications: here or on the partner: biotinylated heavy chain
B4: P87 9-mer neoantigen peptide … (AR-Intron splice variant) (peptide)
peptide: FLFLLLPLS
modifications: here or on the partner: biotinylated heavy chain
B5: P97 9-mer neoantigen peptide … (FOXRED2-TXN2 fusion) (peptide)
peptide: LMAQRLLLR
modifications: here or on the partner: biotinylated heavy chain
B6: P98 9-mer neoantigen peptide … (TP53 (R213D) frameshift) (peptide)
peptide: IVWWCPMSR
modifications: here or on the partner: biotinylated heavy chain
B7: P19 9-mer neoantigen peptide … (TMEM222-LOC644961 fusion) (peptide)
peptide: IPVLTRWPL
modifications: here or on the partner: biotinylated heavy chain
B8: P22 9-mer neoantigen peptide … (SLC45A3-ELK4 fusion) (peptide)
peptide: QLIAMDSAI
modifications: here or on the partner: biotinylated heavy chain
B9: P46 9-mer neoantigen peptide … (TP53 (R213D) frameshift) (peptide)
peptide: CPMSRLRLA
modifications: here or on the partner: biotinylated heavy chain
B10: P48 9-mer neoantigen peptide … (AR.p.H875Y missense) (peptide)
peptide: YQFTFDLLI
modifications: here or on the partner: biotinylated heavy chain
B11: P56 9-mer neoantigen peptide … (SPOP(F102C) missense) (peptide)
peptide: RAKCKFSIL
modifications: here or on the partner: biotinylated heavy chain
B12: P58 9-mer neoantigen peptide … (AR (Q903H) missense) (peptide)
peptide: HVPKILSGK
modifications: here or on the partner: biotinylated heavy chain
B13: P60 9-mer neoantigen peptide … (FOXA1.p.F266L missense) (peptide)
peptide: YLRRQKRLK
modifications: here or on the partner: biotinylated heavy chain
B14: P61 9-mer neoantigen peptide … (FOXA1.p.R261G missense) (peptide)
peptide: CYLGRQKRF
modifications: here or on the partner: biotinylated heavy chain
B15: P73 9-mer neoantigen peptide … (TP53 (G266E) missense) (peptide)
peptide: LLERNSFEV
modifications: here or on the partner: biotinylated heavy chain

Assays:
Test in all cases: UV peptide exchange + HLA class I ELISA; % of Pos control peptide
Details in all cases: remark: other sources report otherwise
[1] = target: HLA-A*01:01 class I complex (biotinylated heavy chain with beta2-microglobulin) (human)
[2] = target: HLA-A*03:01 class I complex (biotinylated heavy chain with beta2-microglobulin) (human)
[3] = target: HLA-A*24:02 class I complex (biotinylated heavy chain with beta2-microglobulin) (human)
[4] = target: HLA-B*07:02 class I complex (biotinylated heavy chain with beta2-microglobulin) (human)
[5] = target: HLA-A*02:01 class I complex (biotinylated heavy chain with beta2-microglobulin) (human)

Binder	exchange rate with Pos peptide [1]	exchange rate with Pos peptide [2]	exchange rate with Pos peptide [3]	exchange rate with Pos peptide [4]	exchange rate with Pos peptide [5]
B1	4.9%	3.8%	0.1%	38.7%	
B2	0.1%	6%	-0.5%	91.5%	85.9%
B3	1.5%	58.1%	-0.1%	12.9%	6.3%
B4	1.1%	2.4%	0.2%	5%	64%
B5	2.5%	39%	0.1%	7%	4.6%
B6	2.5%	51.1%	-0.1%	6.7%	7.9%
B7	5.2%	4.1%	0.1%	91.3%	8.2%
B8	4.4%	4.8%	0%	8.3%	46.9%
B9	2.4%	10.3%	-0.4%	64.8%	14.4%
B10	4.3%	4.4%	0.1%	12.8%	99.3%
B11	2.6%	6.8%	0.5%	82.5%	8.4%
B12	2.5%	32.5%	0.2%		11.8%
B13	3.1%	36.6%	0.9%	6.1%	7.9%
B14	1.7%		90.3%		5.8%
B15		3.5%	0.5%	8.7%	89.2%
